{"source": "paper PMC9458431", "about": "“2′-O-Methylation of the second transcribed nucleotide within the mRNA 5′ cap impacts the protein production level in a cell-specific manner and contributes to RNA immune evasion”", "details_in_all_cases": "protein: recombinant", "key": {"eIF4E (murine) [1]": {"target": "T1, eIF4E (murine) (Mus musculus, UniProt P63073 28-217)", "T1 sequence (P63073 28-217)": "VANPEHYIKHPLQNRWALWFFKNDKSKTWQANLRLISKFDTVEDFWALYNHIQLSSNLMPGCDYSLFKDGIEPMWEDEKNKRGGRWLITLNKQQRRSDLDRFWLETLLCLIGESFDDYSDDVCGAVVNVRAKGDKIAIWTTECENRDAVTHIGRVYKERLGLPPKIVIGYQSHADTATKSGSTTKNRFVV", "assay": "MST competition; vs m7Gp5OC3(5)FAM; not destabilized by m6A; MST: 50 mM HEPES-KOH pH 7.2, 100 mM KCl, 0.5 mM EDTA, 0.05% Tween-20, 25 C, 50 nM eIF4E, 10 nM probe; pull-down: 20 mM Tris-HCl pH 7.4, 150 mM NaCl, 2 mM MgCl2, 2 mM DTT, 0.2% IGEPAL, 4 C"}, "eIF4E (murine) [2]": {"target": "T1, eIF4E (murine)", "assay": "MST competition; vs m7Gp5OC3(5)FAM; as cap0(A); MST: 50 mM HEPES-KOH pH 7.2, 100 mM KCl, 0.5 mM EDTA, 0.05% Tween-20, 25 C, 50 nM eIF4E, 10 nM probe; pull-down: 20 mM Tris-HCl pH 7.4, 150 mM NaCl, 2 mM MgCl2, 2 mM DTT, 0.2% IGEPAL, 4 C"}, "eIF4E (murine) [3]": {"target": "T1, eIF4E (murine)", "assay": "MST competition; vs 10 nM m7Gp5OC3(5)FAM; KD,app only in figure; MST: 50 mM HEPES-KOH pH 7.2, 100 mM KCl, 0.5 mM EDTA, 0.05% Tween-20, 25 C, 50 nM eIF4E, 10 nM probe; pull-down: 20 mM Tris-HCl pH 7.4, 150 mM NaCl, 2 mM MgCl2, 2 mM DTT, 0.2% IGEPAL, 4 C"}}}
{"binder": "AGGGGAAGCGGGCAUGCGGCCAGCCA (ssRNA, m7Gppp-m6ApGm)", "note": "[cap2-1(m6A) RNA]", "values": [{"measurement": "binding result", "setting": "eIF4E (murine) [1]", "result": "binds"}]}
{"binder": "AGGGGAAGCGGGCAUGCGGCCAGCCA (ssRNA, m7Gppp-Am (2'-O-Me at nt 1))", "note": "[cap1(A) RNA]", "values": [{"measurement": "binding result", "setting": "eIF4E (murine) [2]", "result": "binds"}]}
{"binder": "AGGGGAAGCGGGCAUGCGGCCAGCCA (ssRNA, m7Gppp-A)", "note": "[cap0(A) RNA]", "values": [{"measurement": "binding result", "setting": "eIF4E (murine) [3]", "result": "binds"}]}
{"binder": "AGGGGAAGCGGGCAUGCGGCCAGCCA (ssRNA, m7Gppp-AmpGm (2'-O-Me at nt 1 and 2))", "note": "[cap2(A) RNA]", "values": [{"measurement": "binding result", "setting": "eIF4E (murine) [2]", "result": "binds"}]}
{"binder": "AGGGGAAGCGGGCAUGCGGCCAGCCA (ssRNA, m7Gppp-ApGm (2'-O-Me at nt 2 only))", "note": "[cap2-1(A) RNA]", "values": [{"measurement": "binding result", "setting": "eIF4E (murine) [2]", "result": "binds"}]}
